Experimental data reported in article PMC3969221.

Assays:
[1] = target: Manduca sexta cadherin protein fragment (CR7–CR12) (Manduca sexta); experiment: ELISA; 1 μg of cadherin fragment coated per well; toxin or protoxin dilutions in PBS, 1 h at 37°C; detected with polyclonal anti-Cry1Ab antibody; Scatchard analysis; apparent Kd
[2] = target: trypsin-activated Cry1AbMod toxin (Bacillus thuringiensis) (UniProt P0A370)

| Substance | Kd [1] [nM] | LC50 (50% lethal concentration) against M. sexta neonatal larvae, mortality after 7 days [2] [ng/cm^2] |
| --- | --- | --- |
| Cry1Ab protoxin (from UniProt P0A370 1-1155) (natural protein) | 6.8 |  |
| trypsin-activated Cry1AbMod toxin (from UniProt P0A370 1-1155) (domain or fragment) |  | 15 |
